In patent publication US20230035659A1, “Compositions and Methods for TTR Gene Editing and Treating ATTR Amyloidosis Comprising a Corticosteroid or Use Thereof” (Intellia Therapeutics, Inc., priority 2019, published 2023):
Strand notation (5' to 3'): a small letter for the sugar, then the base; units joined by * are phosphorothioate-linked, units joined directly phosphodiester-linked; [ ] holds rarer units or linkages, { } end groups; capitals alone tell only the bases. m = 2'-O-methyl; r = 2'-OH (RNA)

Assays:
TTR mRNA = TTR mRNA knockdown (quantitative PCR) in primary human hepatocytes treated with LNPs; format: cell-based; conditions: PHH, gRNA:mRNA 1:2, 96 h, vs untreated control
Procedure: In one experiment, PHH were cultured and treated with LNPs comprising Cas9 mRNA (SEQ ID NO:1) and a gRNA of interest (See FIG. 29, Table 36), as described in Example 4. The LNPs were prepared using the cross-flow procedure described above and purified and concentrated using PD-10 columns and Amicon centrifugal filter units, respectively. The LNPs were formulated with an N:P ratio of 6.0 and contained Lipid A, Cholesterol, DSPC, and PEG2k-DMG in a 50:38:9:2 molar ratio, respectively. The LNPs comprised a gRNA:mRNA ratio of 1:2, and the cells were treated at a dose of 300 ng (with respect to the amount of mRNA cargo delivered).
(§1) Ninety-six (96) hours following LNP treatment (with biological triplicates for each condition), mRNA was purified from PHH cells using the Dynabeads mRNA DIRECT Kit (ThermoFisher Scientific) according to the manufacturer's protocol. Reverse Transcription (RT) was performed with Maxima reverse transcriptase (ThermoFisher Scientific) and a poly-dT primer. The resulting cDNA was purified with Ampure XP Beads (Agencourt). For Quantitative PCR, 2% of the purified cDNA was amplified with Taqman Fast Advanced Mastermix and 3 Taqman probe sets, TTR (Assay ID: Hs00174914_m1), GAPDH (Assay ID: Hs02786624_g1), and PPIB (Assay ID: Hs00168719_m1). The assays were run on the QuantStudio 7 Flex Real Time PCR System according to the manufacturer's instructions (Life Technologies). Relative expression of TTR mRNA was calculated by normalizing to the endogenous controls (GAPDH and PPIB) individually, and then averaged.
The groups in FIG. 29 and Table 36 are identified by the gRNA ID used in each LNP preparation.
In a separate experiment, TTR mRNA knockdown was evaluated following treatment with LNPs comprising G000480, G000486, and G000502. The LNPs were formulated and PHH were cultured and treated with the LNPs, each as described in the experiment above in this Example with the exception that the cells were treated at a dose of 100 ng (with respect to the amount of mRNA cargo delivered).
as §1, with “(single treatment” for “(with biological triplicates”, “the High Capacity cDNA Reverse Transcription Kit” for “Maxima reverse transcriptase”, “according to the manufacturer's instructions.” for “and a poly-dT primer. The resulting cDNA was purified with Ampure XP Beads (Agencourt).”, “the” for “the purified”
The groups in FIG. 30 and Table 37 are identified by the gRNA ID used in each LNP preparation.

TTR = TTR editing dose response (EC50, maximum editing) in primary human hepatocytes treated with LNP formulated U-depleted Spy Cas9 mRNA and sgRNAs; format: cell-based
Procedure: Primary liver hepatocytes. Primary human liver hepatocytes (PHH) and primary cynomolgus liver hepatocytes (PCH) (Gibco) were cultured per the manufacturer's protocol (Invitrogen, protocol 11.28.2012). In brief, the cells were thawed and resuspended in hepatocyte thawing medium with supplements (Gibco, Cat. CM7000) followed by centrifugation at 100 g for 10 minutes for human and 80 g for 4 minutes for cyno. The supernatant was discarded and the pelleted cells resuspended in hepatocyte plating medium plus supplement pack (Invitrogen, Cat. A1217601 and CM3000). Cells were counted and plated on Bio-coat collagen I coated 96-well plates (ThermoFisher, Cat. 877272) at a density of 33,000 cells/well for human or 60,000 cells/well for cyno (or 65,000 cells/well when assaying effects on TTR protein, described further below). Plated cells were allowed to settle and adhere for 6 or 24 hours in a tissue culture incubator at 37° C. and 5% CO2 atmosphere. After incubation cells were checked for monolayer formation and media was replaced with hepatocyte culture medium with serum-free supplement pack (Invitrogen, Cat. A1217601 and CM4000).
For LNPs prepared using the cross-flow technique, the LNPs were formed by impinging jet mixing of the lipid in ethanol with two volumes of RNA solutions and one volume of water. The lipid in ethanol is mixed through a mixing cross with the two volumes of RNA solution. A fourth stream of water is mixed with the outlet stream of the cross through an inline tee. (See WO2016010840 FIG. 2.) The LNPs were held for 1 hour at room temperature, and further diluted with water (approximately 1:1 v/v). Diluted LNPs were concentrated using tangential flow filtration on a flat sheet cartridge (Sartorius, 100 kD MWCO) and then buffer exchanged by diafiltration into 50 mM Tris, 45 mM NaCl, 5% (w/v) sucrose, pH 7.5 (TSS). Alternatively, the final buffer exchange into TSS was completed with PD-10 desalting columns (GE). If required, formulations were concentrated by centrifugation with Amicon 100 kDa centrifugal filters (Millipore). The resulting mixture was then filtered using a 0.2 μm sterile filter. The final LNP was stored at 4° C. or −80° C. until further use.
Additional PCR was performed per the manufacturer's protocols (Illumina) to add chemistry for sequencing. The amplicons were sequenced on an Illumina MiSeq instrument. The reads were aligned to a reference genome (e.g., the human reference genome (hg38), the cynomologus reference genome (mf5), the rat reference genome (rn6), or the mouse reference genome (mm10)) after eliminating those having low quality scores. The resulting files containing the reads were mapped to the reference genome (BAM files), where reads that overlapped the target region of interest were selected and the number of wild type reads versus the number of reads which contain an insertion, substitution, or deletion was calculated.
The editing percentage (e.g., the “editing efficiency” or “percent editing” or “indel frequency”) is defined as the total number of sequence reads with insertions/deletions (“indels”) or substitutions over the total number of sequence reads, including wild type.
Lipid nanoparticle formulations of modified sgRNAs targeting human TTR and the cyno matched sgRNA sequences were tested on primary human hepatocytes and primary cyno hepatocytes in a dose response curve. Primary human and cyno hepatocytes were plated as described in Example 1. Both cell lines were incubated at 37° C., 5% CO2 for 24 hours prior to treatment with LNPs. The LNPs used in the experiments detailed in Tables 20-22 were prepared using the cross-flow procedure described above but purified using PD-10 columns (GE Healthcare Life Sciences) and concentrated using Amicon centrifugal filter units (Millipore Sigma), each containing the specified sgRNA and Cas9 mRNA (SEQ ID NO:1). […] LNPs were incubated in hepatocyte maintenance media containing 6% cyno serum at 37° C., 5% CO2 for 5 minutes. […]

[1] = LNP dose 300 ng mRNA cargo, biological triplicates
[2] = LNP formulated U-depleted Spy Cas9 mRNA and human specific sgRNAs, dose response
[3] = LNP dose 100 ng mRNA cargo, single treatment

B1: G000567: TTR sgRNA modified sequence, Human, SEQ ID NO: 109; guide sequence of CR003352 (nucleic acid)
guide: mG*mA*mA*rArGrGrCrUrGrCrUrGrArUrGrArCrArCrCrGrUrUrUrUrArGrAmGmCmUmAmGmAmAmAmUmAmGmCrArArGrUrUrArArArArUrArArGrGrCrUrArGrUrCrCrGrUrUrArUrCrAmAmCmUmUmGmAmAmAmAmAmGmUmGmGmCmAmCmCmGmAmGmUmCmGmGmUmGmCmU*mU*mU*mU
For B1, the “Avg % Knockdown (TTR mRNA)” value (TTR mRNA; [1]) was 90.89%.

B2: G000484: TTR sgRNA modified sequence, Human, SEQ ID NO: 91; guide sequence of CR003367 (nucleic acid)
guide: mA*mG*mA*rCrArCrCrArArArUrCrUrUrArCrUrGrGrArGrUrUrUrUrArGrAmGmCmUmAmGmAmAmAmUmAmGmCrArArGrUrUrArArArArUrArArGrGrCrUrArGrUrCrCrGrUrUrArUrCrAmAmCmUmUmGmAmAmAmAmAmGmUmGmGmCmAmCmCmGmAmGmUmCmGmGmUmGmCmU*mU*mU*mU
B2 was tested, and the “Max Editing” value (TTR; [2]) was 94.14% and the “Avg % Knockdown (TTR mRNA)” value (TTR mRNA; [1]) was 75.22%.

B3: G000486: TTR sgRNA modified sequence, Human, SEQ ID NO: 93; guide sequence of CR003339 (nucleic acid)
guide: mA*mC*mA*rCrArArArUrArCrCrArGrUrCrCrArGrCrArGrUrUrUrUrArGrAmGmCmUmAmGmAmAmAmUmAmGmCrArArGrUrUrArArArArUrArArGrGrCrUrArGrUrCrCrGrUrUrArUrCrAmAmCmUmUmGmAmAmAmAmAmGmUmGmGmCmAmCmCmGmAmGmUmCmGmGmUmGmCmU*mU*mU*mU
With B3 the “Avg % Knockdown (TTR mRNA)” value (TTR mRNA; [3]) was 97.36%.

B4: G000483: TTR sgRNA modified sequence, Human, SEQ ID NO: 90; guide sequence of CR005298 (nucleic acid)
guide: mU*mC*mC*rArCrUrCrArUrUrCrUrUrGrGrCrArGrGrArGrUrUrUrUrArGrAmGmCmUmAmGmAmAmAmUmAmGmCrArArGrUrUrArArArArUrArArGrGrCrUrArGrUrCrCrGrUrUrArUrCrAmAmCmUmUmGmAmAmAmAmAmGmUmGmGmCmAmCmCmGmAmGmUmCmGmGmUmGmCmU*mU*mU*mU
B4 was tested, and the “Max Editing” value (TTR; [2]) was 77.39% and the “Avg % Knockdown (TTR mRNA)” value (TTR mRNA; [1]) was 68.78%.

B5: G000494: TTR sgRNA modified sequence, Human, SEQ ID NO: 101; guide sequence of CR003360 (nucleic acid)
guide: mG*mU*mG*rArGrUrCrUrGrGrArGrArGrCrUrGrCrArUrGrUrUrUrUrArGrAmGmCmUmAmGmAmAmAmUmAmGmCrArArGrUrUrArArArArUrArArGrGrCrUrArGrUrCrCrGrUrUrArUrCrAmAmCmUmUmGmAmAmAmAmAmGmUmGmGmCmAmCmCmGmAmGmUmCmGmGmUmGmCmU*mU*mU*mU
In the case of B5, the “Max Editing” value (TTR; [2]) is reported as 75.70% and the “Avg % Knockdown (TTR mRNA)” value (TTR mRNA; [1]) is reported as 91.15%.

B6: G000499: TTR sgRNA modified sequence, Human, SEQ ID NO: 106; guide sequence of CR005303 (nucleic acid)
guide: mU*mG*mA*rArUrCrCrArArGrUrGrUrCrCrUrCrUrGrArGrUrUrUrUrArGrAmGmCmUmAmGmAmAmAmUmAmGmCrArArGrUrUrArArArArUrArArGrGrCrUrArGrUrCrCrGrUrUrArUrCrAmAmCmUmUmGmAmAmAmAmAmGmUmGmGmCmAmCmCmGmAmGmUmCmGmGmUmGmCmU*mU*mU*mU
In the case of B6, the “Max Editing” value (TTR; [2]) is reported as 96.31% and the “Avg % Knockdown (TTR mRNA)” value (TTR mRNA; [1]) is reported as 91.38%.

B7: G000480: TTR sgRNA modified sequence, Human, SEQ ID NO: 87; guide sequence of CR003353 (nucleic acid)
guide: mA*mA*mA*rGrGrCrUrGrCrUrGrArUrGrArCrArCrCrUrGrUrUrUrUrArGrAmGmCmUmAmGmAmAmAmUmAmGmCrArArGrUrUrArArArArUrArArGrGrCrUrArGrUrCrCrGrUrUrArUrCrAmAmCmUmUmGmAmAmAmAmAmGmUmGmGmCmAmCmCmGmAmGmUmCmGmGmUmGmCmU*mU*mU*mU
For B7, the “Max Editing” value (TTR; [2]) was 98.69%, the “Avg % Knockdown (TTR mRNA)” value (TTR mRNA; [3]) was 95.61% and the “Avg % Knockdown (TTR mRNA)” value (TTR mRNA; [1]) was 95.19%.

B8: G000570: TTR sgRNA modified sequence, Human, SEQ ID NO: 111; guide sequence of CR003347 (nucleic acid)
guide: mC*mA*mU*rUrGrArUrGrGrCrArGrGrArCrUrGrCrCrUrGrUrUrUrUrArGrAmGmCmUmAmGmAmAmAmUmAmGmCrArArGrUrUrArArArArUrArArGrGrCrUrArGrUrCrCrGrUrUrArUrCrAmAmCmUmUmGmAmAmAmAmAmGmUmGmGmCmAmCmCmGmAmGmUmCmGmGmUmGmCmU*mU*mU*mU
For B8, the “Max Editing” value (TTR; [2]) was 98.22% and the “Avg % Knockdown (TTR mRNA)” value (TTR mRNA; [1]) was 93.38%.

B9: G000488: TTR sgRNA modified sequence, Human, SEQ ID NO: 95; guide sequence of CR003346 (nucleic acid)
guide: mA*mA*mA*rGrUrUrCrUrArGrArUrGrCrUrGrUrCrCrGrGrUrUrUrUrArGrAmGmCmUmAmGmAmAmAmUmAmGmCrArArGrUrUrArArArArUrArArGrGrCrUrArGrUrCrCrGrUrUrArUrCrAmAmCmUmUmGmAmAmAmAmAmGmUmGmGmCmAmCmCmGmAmGmUmCmGmGmUmGmCmU*mU*mU*mU
With B9 the “Max Editing” value (TTR; [2]) was 95.83% and the “Avg % Knockdown (TTR mRNA)” value (TTR mRNA; [1]) was 92.77%.

B10: G000482: TTR sgRNA modified sequence, Human, SEQ ID NO: 89; guide sequence of CR003365 (nucleic acid)
guide: mU*mG*mU*rArGrArArGrGrGrArUrArUrArCrArArArGrGrUrUrUrUrArGrAmGmCmUmAmGmAmAmAmUmAmGmCrArArGrUrUrArArArArUrArArGrGrCrUrArGrUrCrCrGrUrUrArUrCrAmAmCmUmUmGmAmAmAmAmAmGmUmGmGmCmAmCmCmGmAmGmUmCmGmGmUmGmCmU*mU*mU*mU
With B10 the “Max Editing” value (TTR; [2]) was 97.02% and the “Avg % Knockdown (TTR mRNA)” value (TTR mRNA; [1]) was 82.31%.

B11: G000502: TTR Cyno specific sgRNA modified sequence, SEQ ID NO: 114; guide sequence of CR000689; cross homologous between mouse and cyno (nucleic acid)
guide: mA*mC*mA*rCrArArArUrArCrCrArGrUrCrCrArGrCrGrGrUrUrUrUrArGrAmGmCmUmAmGmAmAmAmUmAmGmCrArArGrUrUrArArArArUrArArGrGrCrUrArGrUrCrCrGrUrUrArUrCrAmAmCmUmUmGmAmAmAmAmAmGmUmGmGmCmAmCmCmGmAmGmUmCmGmGmUmGmCmU*mU*mU*mU
In the case of B11, the “Max Editing” value (TTR; LNP with U-depleted Spy Cas9 mRNA and cyno specific sgRNA, 8 point 3-fold dose response starting at 300 ng mRNA, 72 hours) is reported as 91.5% and the “Avg % Knockdown (TTR mRNA)” value (TTR mRNA; [3]) is reported as 90.94%.
